Common to all, as to assay: holdup assay
Common to all, as to design: key: below the threshold = too weak to quantify, mostly under pKd 3.1 to 4
Holding throughout (settings): plain residues with an end cap or a label only (N-terminal biotin on a linker: ttds)

The target of experiment [1] is CARD14, Q9BXL6.
Experiment [2] concerns the target DVL2, O14641.
Experiment [3] has as its target LMO7, Q8WWI1.
In experiment [4] the target is T1, LNX2_4, Q8N448.
T1 sequence (Q8N448 595-690, limits assumed, looked up): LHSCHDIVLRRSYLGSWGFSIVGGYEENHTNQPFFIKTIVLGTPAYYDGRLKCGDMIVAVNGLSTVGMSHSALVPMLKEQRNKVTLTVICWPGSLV

For experiment [5], the target named is MAGIX, Q9H6Y5.
In experiment [6] the target is T2, NHERF1_2, O14745.
T2 sequence (O14745 149-244, limits assumed, looked up): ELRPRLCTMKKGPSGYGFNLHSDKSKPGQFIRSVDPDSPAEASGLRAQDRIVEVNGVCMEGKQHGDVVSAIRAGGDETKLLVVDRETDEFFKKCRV

The target of experiment [7] is NHERF4_3, Q86UT5.
Experiment [8] deals with PARD3B_2, Q8TEW8.
Experiment [9] deals with PDLIM4, P50479.
Experiment [10] concerns the target T3, PDZD2_1, O15018.
T3 sequence (O15018 80-192, limits assumed, looked up): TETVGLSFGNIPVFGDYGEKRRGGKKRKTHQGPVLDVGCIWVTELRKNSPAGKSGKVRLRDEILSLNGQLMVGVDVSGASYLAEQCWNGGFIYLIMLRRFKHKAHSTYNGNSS

In experiment [11] the target is T4, PDZD2_4, O15018.
T4 sequence (O15018 723-823, limits assumed, looked up): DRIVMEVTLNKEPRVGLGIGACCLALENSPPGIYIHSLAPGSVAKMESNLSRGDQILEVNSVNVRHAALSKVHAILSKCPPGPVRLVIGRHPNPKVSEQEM

In experiment [12] the target is T5, PDZD2_6, O15018.
T5 sequence (O15018 2745-2839, limits assumed, looked up): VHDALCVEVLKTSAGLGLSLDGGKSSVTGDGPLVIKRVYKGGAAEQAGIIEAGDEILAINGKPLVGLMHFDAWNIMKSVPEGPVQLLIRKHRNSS

The target in experiment [13] is T6, PDZD4, Q76G19.
T6 sequence (Q76G19 125-224, limits assumed, looked up): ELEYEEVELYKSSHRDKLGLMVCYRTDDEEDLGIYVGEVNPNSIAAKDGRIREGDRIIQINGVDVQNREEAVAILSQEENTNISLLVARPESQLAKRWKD

The target of experiment [14] is T7, PDZRN3_2, Q9UPQ7.
T7 sequence (Q9UPQ7 414-513, limits assumed, looked up): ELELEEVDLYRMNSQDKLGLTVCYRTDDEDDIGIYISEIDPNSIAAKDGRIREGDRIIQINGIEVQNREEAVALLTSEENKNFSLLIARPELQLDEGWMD

The target in experiment [15] is PTPN13_2, Q12923.
Experiment [16] has as its target T8, PTPN13_4, Q12923.
T8 sequence (Q12923 1783-1878, limits assumed, looked up): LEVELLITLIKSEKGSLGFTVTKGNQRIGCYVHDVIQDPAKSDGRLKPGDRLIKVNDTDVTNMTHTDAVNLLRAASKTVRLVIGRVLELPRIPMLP

The target of experiment [17] is T9, PTPN4, P29074.
T9 sequence (P29074 512-599, limits assumed, looked up): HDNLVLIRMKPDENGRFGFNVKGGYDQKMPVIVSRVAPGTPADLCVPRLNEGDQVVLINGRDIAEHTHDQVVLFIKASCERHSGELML

For experiment [18], the target named is SCRIB_4, Q14160.
For experiment [19], the target named is T10, SHROOM3, Q8TF72.
T10 sequence (Q8TF72 20-120, limits assumed, looked up): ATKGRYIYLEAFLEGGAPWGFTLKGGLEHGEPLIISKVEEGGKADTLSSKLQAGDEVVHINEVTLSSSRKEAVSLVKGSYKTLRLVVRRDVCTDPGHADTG

The target of experiment [20] is T11, SIPA1L3, O60292.
T11 sequence (O60292 961-1052, limits assumed, looked up): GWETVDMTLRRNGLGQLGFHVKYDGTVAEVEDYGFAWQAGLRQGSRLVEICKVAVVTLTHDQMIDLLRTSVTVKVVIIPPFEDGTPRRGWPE

For experiment [21], the target named is T12, SNTB2, Q13425.
T12 sequence (Q13425 110-208, limits assumed, looked up): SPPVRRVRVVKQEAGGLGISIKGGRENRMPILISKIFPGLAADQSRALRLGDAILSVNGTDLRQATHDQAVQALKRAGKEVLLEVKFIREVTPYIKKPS

Experiment [22] deals with T13, TJP3_2, O95049.
T13 sequence (O95049 190-282, limits assumed, looked up): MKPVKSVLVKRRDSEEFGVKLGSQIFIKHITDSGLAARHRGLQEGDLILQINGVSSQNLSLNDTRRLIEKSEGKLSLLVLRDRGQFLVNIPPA

In experiment [23] the target is T14, USH1C_3, Q9Y6N9.
T14 sequence (Q9Y6N9 447-547, limits assumed, looked up): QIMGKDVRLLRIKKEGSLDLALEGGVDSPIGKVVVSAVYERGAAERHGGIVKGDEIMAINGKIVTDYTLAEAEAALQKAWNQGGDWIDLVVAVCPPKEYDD

NHERF4_3, Q86UT5, sequence (Q86UT5 325-412): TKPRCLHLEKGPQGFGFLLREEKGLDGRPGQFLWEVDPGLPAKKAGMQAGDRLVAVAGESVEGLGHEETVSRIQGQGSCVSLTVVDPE
SCRIB_4, Q14160, sequence (Q14160 1095-1204): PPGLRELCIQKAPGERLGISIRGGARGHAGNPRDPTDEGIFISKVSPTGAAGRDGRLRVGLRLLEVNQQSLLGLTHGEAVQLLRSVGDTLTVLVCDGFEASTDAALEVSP
MAGIX, Q9H6Y5, sequence (Q9H6Y5 118-211): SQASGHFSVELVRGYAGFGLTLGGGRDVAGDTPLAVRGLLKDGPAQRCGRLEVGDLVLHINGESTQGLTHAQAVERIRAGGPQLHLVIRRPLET
PDLIM4, P50479, sequence (P50479 1-83): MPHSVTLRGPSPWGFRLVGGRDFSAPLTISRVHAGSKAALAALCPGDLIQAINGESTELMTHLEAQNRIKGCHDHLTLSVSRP
PTPN13_2, Q12923, sequence (Q12923 1363-1462): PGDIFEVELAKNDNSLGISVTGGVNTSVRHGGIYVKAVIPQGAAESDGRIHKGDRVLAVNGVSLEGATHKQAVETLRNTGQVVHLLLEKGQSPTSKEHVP
DVL2, O14641, sequence (O14641 260-359): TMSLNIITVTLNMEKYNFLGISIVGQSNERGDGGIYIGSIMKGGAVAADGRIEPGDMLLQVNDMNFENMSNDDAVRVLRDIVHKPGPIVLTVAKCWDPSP
LMO7, Q8WWI1, sequence (Q8WWI1 1037-1138): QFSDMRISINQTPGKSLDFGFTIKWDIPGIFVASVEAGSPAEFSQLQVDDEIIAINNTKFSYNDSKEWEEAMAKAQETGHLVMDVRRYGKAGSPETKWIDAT
CARD14, Q9BXL6, sequence (Q9BXL6 558-663): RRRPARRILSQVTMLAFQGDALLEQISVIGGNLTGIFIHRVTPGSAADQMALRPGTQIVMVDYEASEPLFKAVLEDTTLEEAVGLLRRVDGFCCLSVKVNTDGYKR
PARD3B_2, Q8TEW8, sequence (Q8TEW8 376-471): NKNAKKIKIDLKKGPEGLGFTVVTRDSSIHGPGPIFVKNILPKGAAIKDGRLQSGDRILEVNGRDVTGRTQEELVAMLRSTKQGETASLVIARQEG

B1: SLCO1C1, Q9NYB5 (peptide)
chain: NYWPGKETQL
Turning to B1, the pKd result in experiment [1] was “below the threshold”; in experiment [2], “below the threshold”; in experiment [3], “below the threshold”; in [4], 4.73; in experiment [5], 5.35; in [6], “below the threshold”. Moreover, the pKd in experiment [7] was 4.56; in experiment [8], “below the threshold”; in experiment [9], “below the threshold”; in [10], “below the threshold”; in experiment [11] it was “below the threshold”; in [12], “below the threshold”. The pKd result in [13] was “below the threshold”; in experiment [14], “below the threshold”; in [15] it was “below the threshold”; in experiment [16], “below the threshold”; in experiment [17] it was 4.91; in experiment [18], 4.83. Besides, the pKd entry in experiment [19] was “below the threshold”; in [20] it was “below the threshold”; in experiment [21], 5.13; in [22] it was “below the threshold”; in experiment [23], “below the threshold”.

B2: ARHGEF16, Q5VV41 (peptide)
chain: MERLRVETDV
On to B2, for which the pKd entry in experiment [1], in experiment [2], in [3], in experiment [4], in [5] and in [6] was “below the threshold” in each case. The pKd entry in experiment [7], in experiment [8], in [9], in [10], in experiment [11] and in [12] was “below the threshold” each time. Besides, the pKd entry in experiment [13] is “below the threshold”; in experiment [14], “below the threshold”; in [15] it was “below the threshold”; in experiment [16], “below the threshold”; in experiment [17] it was 4.25; in [18], “below the threshold”. Moreover, the pKd entry in experiment [19] is “below the threshold”; in experiment [20], “below the threshold”; in experiment [21], 4.42; in [22] it was “below the threshold”; in [23], “below the threshold”.

B3: MAP2K2, P36507 (peptide)
chain: QPGTPTRTAV
As for B3, the pKd entry in experiment [1] was “below the threshold”; in experiment [2] it was 4.8; in experiment [3] it was “below the threshold”; in experiment [4], “below the threshold”; in [5], “below the threshold”; in experiment [6], “below the threshold”. Besides, the pKd result in experiment [7], in [8], in [9], in experiment [10], in experiment [11] and in experiment [12] was “below the threshold” throughout. Also, the pKd in experiment [13] was 4.21; in experiment [14], “below the threshold”; in experiment [15] it was “below the threshold”; in experiment [16] it was “below the threshold”; in experiment [17], “below the threshold”; in experiment [18], “below the threshold”. The pKd result in experiment [19], in [20], in experiment [21], in experiment [22] and in experiment [23] was “below the threshold” each time.

B4: PBK, Q96KB5 (peptide)
chain: HIVEALETDV
For B4, the pKd entry in experiment [1] was “below the threshold”; in [2] it was 5.15; in [3], “below the threshold”; in [4] it was “below the threshold”; in experiment [5], “below the threshold”; in [6] it was “below the threshold”. In addition, the pKd entry in [7], in [8], in [9], in experiment [10], in [11] and in [12] was “below the threshold” in each case. Also, the pKd result in experiment [13], in experiment [14], in experiment [15], in experiment [16], in experiment [17] and in [18] was “below the threshold” throughout. Moreover, the negative logarithm of the Kd (pKd) entry in experiment [19] was “below the threshold”; in experiment [20], “below the threshold”; in experiment [21], 4.87; in experiment [22], “below the threshold”; in [23], “below the threshold”.

In general, pKd refers to −log10 of the Kd, conventionally taken in molar units.

The values are drawn from article PMC9482650, “Quantitative fragmentomics allow affinity mapping of interactomes” (Nature Communications, 2022).
